Values of other authors, collected in patent US20040063697A1, “Compositions of cyclooxygenase-2 selective inhibitors and thrombolytic agents for the treatment or prevention of a vaso-occlusive event” (priority 2002, published 2004).

Tests used:
plasminogen = plasminogen (Homo sapiens, UniProt P00747)
[1] = for Antigenicity: in vivo; for immune response: when administered to a human
[2] = for Elimination / Half-Life: in vivo
[3] = test system: coronary intimal proliferation; conditions: oral administration, swine model of restenosis
[4] = test system: vascular smooth muscle cells; conditions: in vitro
minimal lumen diameter = conditions: single dose intravenous pretreatment before coronary stenting, at 6 months
restenosis = conditions: orally administered, stent implanted pig arteries

plasminogen, sequence (P00747 20-810 limits assumed): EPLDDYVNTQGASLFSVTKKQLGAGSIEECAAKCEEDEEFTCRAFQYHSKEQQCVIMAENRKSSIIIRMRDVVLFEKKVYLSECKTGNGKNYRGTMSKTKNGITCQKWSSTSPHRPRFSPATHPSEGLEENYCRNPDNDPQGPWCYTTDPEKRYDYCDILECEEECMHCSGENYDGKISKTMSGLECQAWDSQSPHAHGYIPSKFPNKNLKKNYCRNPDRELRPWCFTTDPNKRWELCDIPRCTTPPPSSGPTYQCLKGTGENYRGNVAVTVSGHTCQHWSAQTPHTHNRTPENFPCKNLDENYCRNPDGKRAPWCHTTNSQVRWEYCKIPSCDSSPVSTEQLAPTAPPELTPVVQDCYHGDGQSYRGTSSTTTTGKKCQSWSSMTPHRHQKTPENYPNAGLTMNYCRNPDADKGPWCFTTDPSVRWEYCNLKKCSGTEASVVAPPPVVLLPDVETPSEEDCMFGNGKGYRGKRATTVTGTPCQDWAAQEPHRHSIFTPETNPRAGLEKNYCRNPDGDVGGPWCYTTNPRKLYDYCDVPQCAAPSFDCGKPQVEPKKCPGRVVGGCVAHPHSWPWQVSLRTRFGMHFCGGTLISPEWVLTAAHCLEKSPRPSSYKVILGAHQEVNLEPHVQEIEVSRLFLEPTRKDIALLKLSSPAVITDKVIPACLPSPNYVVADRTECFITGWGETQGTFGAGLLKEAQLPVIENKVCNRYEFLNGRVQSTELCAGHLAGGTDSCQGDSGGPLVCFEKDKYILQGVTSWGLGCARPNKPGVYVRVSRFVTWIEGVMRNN

Method of Plasminogen Activation (plasminogen) | Compound | activation of fibrin-bound plasminogen versus circulating plasminogen (plasminogen) | Antigenicity [1] | immune response [1] | Elimination [2] | Half-Life [2] [min] | also measured
Direct | Urokinase | activates fibrin-bound plasminogen as well as circulating plasminogen | No | does not elicit an immune response | Hepatic | 15 to 20 | –
Direct | Alteplase: biosynthetic, glycosylated form of human t-PA | – | No | no immune response is elicited | Hepatic | 4 to 8 | plasma clearance time and half-life ([2]; in words): rapid plasma clearance time and a short half-life
– | t-PA: tissue plasminogen activators | highly specific for the activation of fibrin-bound plasminogen over circulating plasminogen | – | – | – | – | –
– | CN(C)CCCO[C@@H]1[C@H]2OC(C)(C)O[C@H]2O[C@@H]1[C@H](O)CO.Cl [aniprilose hydrochloride] | – | – | – | – | – | coronary intimal proliferation [3]: did not prevent
– | COc1cc(/C=C/C(=O)CC(=O)/C=C/c2ccc(O)c(OC)c2)ccc1O [curcumin] | – | – | – | – | – | proliferation of vascular smooth muscle cells [4]: reduced proliferation
– | C[C@H]1C[C@@H]2[C@H]([C@@H](O)C[C@@]3(C)[C@H]2CC[C@]3(O)C(=O)CO)[C@@]2(C)C=CC(=O)C=C12 [methylpridnisolone] | – | – | – | – | – | change in minimal lumen diameter (minimal lumen diameter): no effect
– | COc1ccc(C=CC(=O)Nc2ccccc2C(=O)O)cc1OC [tranilast, N-(3,4-dimethoxycinnamoyl) anthranilic acid] | – | – | – | – | – | rate of restenosis (restenosis): lower rate of restenosis

Compound | Method of Plasminogen Activation (plasminogen) | activation of fibrin-bound plasminogen versus circulating plasminogen (plasminogen) | Antigenicity [1] | immune response [1] | Elimination [2] | Half-Life [2] [min] | also measured
Streptokinase: plasminogen activator produced by beta-hemolytic streptococci | Indirect | activate fibrin-bound plasminogen as well as circulating plasminogen | Yes | induce an immune response | Hepatic | 15 to 25 | –
